# In article PMC3050594 (Nature structural & molecular biology, 2010):
# B1: palivizumab Fab (Fab, V domains shown)
# VH: QVTLRESGPALVKPTQTLTLTCTFSGFSLSTSGMSVGWIRQPPGKALEWLADIWWDDKKDYNPSLKSRLTISKDTSKNQVVLKVTNMDPADTATYYCARSMITNWYFDVWGAGTTVTVSS
# VL: DIQMTQSPSTLSASVGDRVTITCKCQLSVGYMHWYQQKPGKAPKLLIYDTSKLASGVPSRFSGSGSGTEFTLTISSLQPDDFATYYCFQGSGYPFTFGGGTKLEIK
# Target: RSV F0 Fd glycoprotein (Human respiratory syncytial virus; …, UniProt P03420, stabilised, glycosylated)
# Test: SEC
binder,measurement,value
B1,stoichiometry N,2.97 Fabs per trimer
